In article PMC5493754, “Myosin 7 and its adaptors link cadherins to actin” (Nature Communications, 2017):

T1: YFP-Harmonin NPDZ1.PDZ2 (human, UniProt Q9Y6N9-1 1-301)
T1 construct: Harmonin-a1 (USH1C), human, residues 1-301 of UniProt Q9Y6N9-1; also called ^YFPNPDZ1.PDZ2; source: E. coli BL21 (DE3) Rosetta, purified (Glutathione Sepharose 4B, size-exclusion chromatography)
T1 sequence (looked up): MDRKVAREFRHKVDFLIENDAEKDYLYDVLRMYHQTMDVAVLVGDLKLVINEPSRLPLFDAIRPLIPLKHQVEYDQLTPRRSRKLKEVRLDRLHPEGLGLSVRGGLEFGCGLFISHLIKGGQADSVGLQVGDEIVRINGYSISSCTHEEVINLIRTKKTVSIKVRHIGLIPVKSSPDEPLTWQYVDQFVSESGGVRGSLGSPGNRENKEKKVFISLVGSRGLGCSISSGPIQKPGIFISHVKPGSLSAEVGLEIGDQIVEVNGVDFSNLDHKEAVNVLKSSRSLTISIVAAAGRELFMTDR

T2: ANKS4B_(CEN-PBM) with YFP-harmonin NPDZ1.PDZ2 (human, UniProt Q8N8V4 259-417; Q9Y6N9-1 1-301)
T2 construct: ANKS4B, human, residues 259-417 of UniProt Q8N8V4; as m43; Harmonin-a1 (USH1C), human, residues 1-301 of UniProt Q9Y6N9-1; as m31; also called ANKS4b+^YFPNPDZ1.PDZ2; ^YFPNPDZ1.PDZ2+ANKS4B_(CEN-PBM); source: purified E. coli proteins mixed
T2 sequence (looked up) 1: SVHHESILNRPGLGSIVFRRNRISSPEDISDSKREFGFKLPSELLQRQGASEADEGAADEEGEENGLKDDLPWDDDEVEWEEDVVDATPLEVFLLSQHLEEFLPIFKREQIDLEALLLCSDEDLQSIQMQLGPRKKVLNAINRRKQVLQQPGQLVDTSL
T2 sequence (looked up) 2: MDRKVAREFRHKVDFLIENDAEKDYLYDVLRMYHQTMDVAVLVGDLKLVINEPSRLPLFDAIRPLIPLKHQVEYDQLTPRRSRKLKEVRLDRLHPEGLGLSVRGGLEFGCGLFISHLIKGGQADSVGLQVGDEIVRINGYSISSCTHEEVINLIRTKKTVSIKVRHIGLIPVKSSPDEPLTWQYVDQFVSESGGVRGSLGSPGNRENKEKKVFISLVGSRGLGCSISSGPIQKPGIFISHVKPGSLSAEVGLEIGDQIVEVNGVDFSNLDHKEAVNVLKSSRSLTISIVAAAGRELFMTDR

T3: SANS_(CEN-PBM) with YFP-harmonin NPDZ1.PDZ2 ( | human, UniProt Q495M9 300-461; Q9Y6N9-1 1-301)
T3 construct: SANS (USH1G), residues 300-461 of UniProt Q495M9; as m41; Harmonin-a1 (USH1C), human, residues 1-301 of UniProt Q9Y6N9-1; as m31; also called SANS_(CEN-PBM)+^YFPNPDZ1.PDZ2; source: purified E. coli proteins mixed
T3 sequence (looked up) 1: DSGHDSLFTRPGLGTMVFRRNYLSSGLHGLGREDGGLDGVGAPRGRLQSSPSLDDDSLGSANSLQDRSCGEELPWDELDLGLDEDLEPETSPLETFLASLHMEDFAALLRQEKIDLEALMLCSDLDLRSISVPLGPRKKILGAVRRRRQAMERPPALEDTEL
T3 sequence (looked up) 2: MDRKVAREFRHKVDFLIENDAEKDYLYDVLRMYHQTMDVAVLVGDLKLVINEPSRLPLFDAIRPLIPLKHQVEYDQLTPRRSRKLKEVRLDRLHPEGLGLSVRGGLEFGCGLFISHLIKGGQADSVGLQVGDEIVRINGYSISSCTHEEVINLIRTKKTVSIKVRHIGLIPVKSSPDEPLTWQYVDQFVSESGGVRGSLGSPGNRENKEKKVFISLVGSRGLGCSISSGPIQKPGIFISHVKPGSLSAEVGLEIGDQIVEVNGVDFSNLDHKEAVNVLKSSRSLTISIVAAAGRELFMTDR

T4: YFP-ANKS4B_(CEN-PBM) with harmonin NPDZ1.PDZ2 (human, UniProt Q8N8V4 259-417; Q9Y6N9-1 1-301)
T4 construct: ANKS4B, human, residues 259-417 of UniProt Q8N8V4; as m42; Harmonin-a1 (USH1C), human, residues 1-301 of UniProt Q9Y6N9-1; as m30; also called ^YFPANKS4b+NPDZ1.PDZ2; source: purified E. coli proteins mixed; not shown: YFP, N-terminal, kept
T4 sequence (looked up) 1: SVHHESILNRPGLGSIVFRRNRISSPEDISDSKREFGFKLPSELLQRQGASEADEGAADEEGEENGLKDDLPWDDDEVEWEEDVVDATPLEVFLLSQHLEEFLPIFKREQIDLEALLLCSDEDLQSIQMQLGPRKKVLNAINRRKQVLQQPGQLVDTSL
T4 sequence (looked up) 2: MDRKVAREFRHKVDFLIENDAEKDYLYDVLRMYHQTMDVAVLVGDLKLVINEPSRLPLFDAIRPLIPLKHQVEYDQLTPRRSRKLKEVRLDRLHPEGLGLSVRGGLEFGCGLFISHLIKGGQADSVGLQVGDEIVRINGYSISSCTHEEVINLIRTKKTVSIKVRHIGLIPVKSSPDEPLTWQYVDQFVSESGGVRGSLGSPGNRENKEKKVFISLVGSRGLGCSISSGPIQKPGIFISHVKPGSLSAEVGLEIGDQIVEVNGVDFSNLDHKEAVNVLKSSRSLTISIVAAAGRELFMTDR

T5: YFP-SANS_(CEN-PBM) saturated with harmonin NPDZ1.PDZ2 ( | human, UniProt Q495M9 300-461; Q9Y6N9-1 1-301)
T5 construct: SANS (USH1G), residues 300-461 of UniProt Q495M9; as m40; Harmonin-a1 (USH1C), human, residues 1-301 of UniProt Q9Y6N9-1; as m30; also called ^YFPSANS_(CEN-PBM)+NPDZ1.PDZ2; source: purified E. coli proteins mixed (saturating NPDZ1.PDZ2); not shown: YFP, N-terminal, kept
T5 sequence (looked up) 1: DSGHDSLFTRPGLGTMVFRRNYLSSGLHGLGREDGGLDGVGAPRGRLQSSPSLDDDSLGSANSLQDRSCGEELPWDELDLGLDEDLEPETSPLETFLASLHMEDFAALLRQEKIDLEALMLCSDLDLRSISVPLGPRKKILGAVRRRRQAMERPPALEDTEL
T5 sequence (looked up) 2: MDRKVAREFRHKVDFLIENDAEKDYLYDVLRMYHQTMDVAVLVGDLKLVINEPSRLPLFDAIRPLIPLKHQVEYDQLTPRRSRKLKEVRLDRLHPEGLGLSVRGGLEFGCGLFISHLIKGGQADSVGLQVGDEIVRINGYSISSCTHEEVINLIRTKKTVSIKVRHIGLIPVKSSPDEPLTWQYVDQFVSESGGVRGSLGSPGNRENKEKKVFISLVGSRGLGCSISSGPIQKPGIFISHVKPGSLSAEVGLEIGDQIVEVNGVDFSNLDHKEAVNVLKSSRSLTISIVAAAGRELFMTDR

T6: SANS_(CEN-PBM) with YFP-FL-harmonin-ΔCter ( | human, UniProt Q495M9 300-461; Q9Y6N9-1 1-542)
T6 construct: SANS (USH1G), residues 300-461 of UniProt Q495M9; as m41; Harmonin-a1 (USH1C), human, residues 1-542 of UniProt Q9Y6N9-1; as m28; also called SANS_(CEN-PBM)+^YFPFL ΔCter; source: purified E. coli proteins mixed
T6 sequence (looked up) 1: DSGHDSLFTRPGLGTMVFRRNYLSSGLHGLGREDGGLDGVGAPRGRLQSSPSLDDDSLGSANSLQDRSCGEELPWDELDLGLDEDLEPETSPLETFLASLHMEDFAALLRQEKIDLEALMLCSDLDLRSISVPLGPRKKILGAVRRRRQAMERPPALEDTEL
T6 sequence (looked up) 2: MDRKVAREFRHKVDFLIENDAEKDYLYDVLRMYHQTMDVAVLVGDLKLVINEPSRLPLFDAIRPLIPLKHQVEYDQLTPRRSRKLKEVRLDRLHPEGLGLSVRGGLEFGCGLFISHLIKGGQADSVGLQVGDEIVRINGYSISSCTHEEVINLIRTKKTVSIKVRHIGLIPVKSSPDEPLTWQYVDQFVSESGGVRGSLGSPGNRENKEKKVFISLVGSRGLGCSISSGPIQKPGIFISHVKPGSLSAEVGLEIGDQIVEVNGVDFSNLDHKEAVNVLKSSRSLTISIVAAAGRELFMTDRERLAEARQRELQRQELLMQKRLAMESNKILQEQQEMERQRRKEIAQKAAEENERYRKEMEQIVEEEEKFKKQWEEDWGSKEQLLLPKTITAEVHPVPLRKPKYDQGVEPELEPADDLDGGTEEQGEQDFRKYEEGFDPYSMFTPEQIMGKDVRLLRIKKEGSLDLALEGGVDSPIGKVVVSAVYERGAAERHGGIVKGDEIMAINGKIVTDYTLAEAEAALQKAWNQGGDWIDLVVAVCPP

T7: Harmonin NPDZ1.PDZ2 (human, UniProt Q9Y6N9-1 1-301)
T7 construct: Harmonin-a1 (USH1C), human, N-terminal domain, PDZ1 and PDZ2, residues 1-301 of UniProt Q9Y6N9-1; source: E. coli BL21 (DE3) Rosetta, purified (Glutathione Sepharose 4B, size-exclusion chromatography)
T7 sequence (looked up): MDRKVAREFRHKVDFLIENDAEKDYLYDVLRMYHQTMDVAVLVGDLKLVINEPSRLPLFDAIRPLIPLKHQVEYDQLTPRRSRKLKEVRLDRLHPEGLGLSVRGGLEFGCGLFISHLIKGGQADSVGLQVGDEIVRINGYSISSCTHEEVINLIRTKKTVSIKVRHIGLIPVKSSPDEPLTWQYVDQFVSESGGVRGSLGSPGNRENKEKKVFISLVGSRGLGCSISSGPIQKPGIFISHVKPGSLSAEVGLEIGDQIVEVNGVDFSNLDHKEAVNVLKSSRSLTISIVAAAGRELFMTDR


Experiments:
Settings in all cases: both partners purified
YFP-Harmonin NPDZ1.PDZ2 = molecular target: T1, YFP-Harmonin NPDZ1.PDZ2; assay: MST; YFP-fused partner constant at 100 nM, non-fluorescent protein titrated (16 two-fold dilutions); 20 mM Hepes pH 7.0, 100 mM NaCl, 1 mM EGTA, 0.5 mM TCEP, 0.05% Tween 20; Monolith NT.115
[1] = molecular target: T2, ANKS4B_(CEN-PBM) with YFP-harmonin …; assay: MST; YFP-fused partner held together with a third protein (saturating concentrations; competition experiments), non-fluorescent protein titrated
[2] = molecular target: T3, SANS_(CEN-PBM) with YFP-harmonin …; assay: as above
[3] = molecular target: T4, YFP-ANKS4B_(CEN-PBM) with harmonin …; assay: as above
[4] = molecular target: T5, YFP-SANS_(CEN-PBM) saturated with …; assay: as above
[5] = molecular target: T6, SANS_(CEN-PBM) with …; assay: as above
Harmonin NPDZ1.PDZ2 = molecular target: T7, Harmonin NPDZ1.PDZ2; assay: MST; YFP-fused partner constant at 100 nM, non-fluorescent protein titrated (16 two-fold dilutions); 20 mM Hepes pH 7.0, 100 mM NaCl, 1 mM EGTA, 0.5 mM TCEP, 0.05% Tween 20; Monolith NT.115

Row | Binder | Kd (YFP-Harmonin NPDZ1.PDZ2) | Kd [1] | Kd [2] | Kd [3] | Kd [4] | Kd [5] | Kd (Harmonin NPDZ1.PDZ2)
1 | Harmonin-a PDZ3c (non-fluorescent, as used in MST) (domain or fragment, human, UniProt Q9Y6N9-1 428-552, looked up, Harmonin-a1 (USH1C), human, PDZ3 plus C-terminal peptide, residues 428-552 of UniProt Q9Y6N9-1; The methods say only that samples for ITC or crystallisation were digested with TEV protease; also called PDZ3c (isoA); source: E. coli BL21 (DE3) Rosetta, purified (Glutathione Sepharose 4B, size-exclusion chromatography)) QDFRKYEEGFDPYSMFTPEQIMGKDVRLLRIKKEGSLDLALEGGVDSPIGKVVVSAVYERGAAERHGGIVKGDEIMAINGKIVTDYTLAEAEAALQKAWNQGGDWIDLVVAVCPPKEYDDELTFF | 5.2 µM | > 100 µM | > 100 µM | > 100 µM | > 100 µM | > 100 µM | –
2 | YFP-Harmonin-a PDZ3c (domain or fragment, human, UniProt Q9Y6N9-1 428-552, looked up, Harmonin-a1 (USH1C), human, residues 428-552 of UniProt Q9Y6N9-1; also called ^YFPPDZ3c (isoA); source: E. coli BL21 (DE3) Rosetta, purified (Glutathione Sepharose 4B, size-exclusion chromatography)) QDFRKYEEGFDPYSMFTPEQIMGKDVRLLRIKKEGSLDLALEGGVDSPIGKVVVSAVYERGAAERHGGIVKGDEIMAINGKIVTDYTLAEAEAALQKAWNQGGDWIDLVVAVCPPKEYDDELTFF | – | – | – | – | – | – | 3.2 µM
